The target of this assay is Phosphatidylinositol 4-kinase alpha (PI4KA), subunit of the PI4KA complex (human, UniProt P42356 1-2102). Briefly: cryo-EM structure.

B1: TTC7B, subunit of the PI4KA complex (natural protein)
chain: MATKKAGSRLETEIERCRSECQWERIPELVKQLSAKLIANDDMAELLLGESKLEQYLKEHPLRQGASPRGPKPQLTEVRKHLTAALDRGNLKSEFLQESNLIMAKLNYVEGDYKEALNIYARVGLDDLPLTAVPPYRLRVIAEAYATKGLCLEKLPISSSTSNLHVDREQDVITCYEKAGDIALLYLQEIERVILSNIQNRSPKPGPAPHDQELGFFLETGLQRAHVLYFKNGNLTRGVGRFRELLRAVETRTTQNLRMTIARQLAEILLRGMCEQSYWNPLEDPPCQSPLDDPLRKGANTKTYTLTRRARVYSGENIFCPQENTEEALLLLLISESMANRDAVLSRIPEHKSDRLISLQSASVVYDLLTIALGRRGQYEMLSECLERAMKFAFEEFHLWYQFALSLMAAGKSARAVKVLKECIRLKPDDATIPLLAAKLCMGSLHWLEEAEKFAKTVVDVGEKTSEFKAKGYLALGLTYSLQATDASLRGMQEVLQRKALLAFQRAHSLSPTDHQAAFYLALQLAISRQIPEALGYVRQALQLQGDDANSLHLLALLLSAQKHYHDALNIIDMALSEYPENFILLFSKVKLQSLCRGPDEALLTCKHMLQIWKSCYNLTNPSDSGRGSSLLDRTIADRRQLNTITLPDFSDPETGSVHATSVAASRVEQALSEVASSLQSSAPKQGPLHPWMTLAQIWLHAAEVYIGIGKPAEATACTQEAANLFPMSHNVLYMRGQIAELRGSMDEARRWYEEALAISPTHVKSMQRLALILHQLGRYSLAEKILRDAVQVNSTAHEVWNGLGEVLQAQGNDAAATECFLTALELEASSPAVPFTIIPRVL
As for B1, the binding result is “binds”.

The values are drawn from publication doi:10.1101/2024.04.09.588654 (bioRxiv, 2024).
